Assay results as given in doi:10.1101/2021.06.08.447555 (bioRxiv, 2021).

Target: the molecule itself
Test: SEC

B1: His6-eVP40 (Ebola virus matrix protein VP40) (natural protein)
chain: MRRVILPTAPPEYMEAIYPVRSNSTIARGGNSNTGFLTPESVNGDTPSNPLRPIADDTIDHASHTPGSVSSAFILEAMVNVISGPKVLMKQIPIWLPLGVADQKTYSFDSTTAAIMLASYTITHFGKATNPLVRVNRLGPGIPDHPLRLLRIGNQAFLQEFVLPPVQLPQYFTFDLTALKLITQPLPAATWTDDTPTGSNGALRPGISFHPKLRPILLPNKSGKKGNSADLTSPEKIQAIMTSLQDFKIVPIDPTKNIMGIEVPETLVHKLTGKKVTSKNGQPIIPVLLPKYIGLDPVAPGDLTMVITQDCDTCHSPASLPAVIEK
stoichiometry N: 2
